The source of these data is PMC12480533 (Nature Communications, 2025).

The data set concerns the molecule itself. The data set is described as follows: cryo-EM structure.

B1: full-length human SLC30A10 (natural protein, UniProt Q6XR72 1-485, looked up)
chain: MGRYSGKTCRLLFMLVLTVAFFVAELVSGYLGNSIALLSDSFNMLSDLISLCVGLSAGYIARRPTRGFSATYGYARAEVVGALSNAVFLTALCFTIFVEAVLRLARPERIDDPELVLIVGVLGLLVNVVGLLIFQDCAAWFACCLRGRSRRLQQRQQLAEGCVPGAFGGPQGAEDPRRAADPTAPGSDSAVTLRGTSVERKREKGATVFANVAGDSFNTQNEPEDMMKKEKKSEALNIRGVLLHVMGDALGSVVVVITAIIFYVLPLKSEDPCNWQCYIDPSLTVLMVIIILSSAFPLIKETAAILLQMVPKGVNMEELMSKLSAVPGISSVHEVHIWELVSGKIIATLHIKYPKDRGYQDASTKIREIFHHAGIHNVTIQFENVDLKEPLEQKDLLLLCNSPCISKGCAKQLCCPPGALPLAHVNGCAEHNGGPSLDTYGSDGLSRRDAREVAIEVSLDSCLSDHGQSLNKTQEDQCYVNRTHF
Regarding B1, the “stoichiometry N” value is 2.
